US20160264677A1 (GANYMED PHARMACEUTICALS, published 2016)

B1: chimeric monoclonal antibody chimAB 64A (antibody, human IgG1, kappa, V domains shown)
VH: EVQLQQSGPELVKPGASMKISCKASGYSFTGYTMNWVKQSHGKNLEWIGLINPYNGGTIYNQKFKGKATLTVDKSSSTAYMELLSLTSEDSAVYYCARDYGFVLDYWGQGTTLTVSS
VL: QIVLTQSPSIMSVSPGEKVTITCSASSSVSYMHWFQQKPGTSPKLCIYSTSNLASGVPARFSGRGSGTSYSLTISRVAAEDAATYYCQQRSNYPPWTFGGGTKLEIKR
notes: Mouse/human chimeric IgG1, kappa
B2: chimeric monoclonal antibody chimAB 61D (antibody, human IgG1, kappa, V domains shown)
VH: EVQLQQSGPELVKPGASMKISCKASGYSFTGYTMNWVKQSHGKNLEWIGLINPYNGGTSYNQKFKGKATLTIDKSSSTAYMELLSLTSEDSAVYYCARDYGYVLDYWGQGTTLTVSS
VL: QIVLTQSPAIMSASPGEKVTITCSASSSVSYLHWFQQKPGTSPKLWVYSTSNLPSGVPARFGGSGSGTSYSLTISRMEAEDAATYYCQQRSIYPPWTFGGGTKLEIKR
notes: as for B1
B3: murine monoclonal antibody muMAB 64A (antibody, mouse IgG2a, V domains shown)
VH: EVQLQQSGPELVKPGASMKISCKASGYSFTGYTMNWVKQSHGKNLEWIGLINPYNGGTIYNQKFKGKATLTVDKSSSTAYMELLSLTSEDSAVYYCARDYGFVLDYWGQGTTLTVSS
VL: QIVLTQSPSIMSVSPGEKVTITCSASSSVSYMHWFQQKPGTSPKLCIYSTSNLASGVPARFSGRGSGTSYSLTISRVAAEDAATYYCQQRSNYPPWTFGGGTKLEIK
notes: also called GT512muMAB 64A; DSM ACC3070
B4: murine monoclonal antibody muMAB 61D (antibody, mouse IgG2a, V domains shown)
VH: EVQLQQSGPELVKPGASMKISCKASGYSFTGYTMNWVKQSHGKNLEWIGLINPYNGGTSYNQKFKGKATLTIDKSSSTAYMELLSLTSEDSAVYYCARDYGYVLDYWGQGTTLTVSS
VL: QIVLTQSPAIMSASPGEKVTITCSASSSVSYLHWFQQKPGTSPKLWVYSTSNLPSGVPARFGGSGSGTSYSLTISRMEAEDAATYYCQQRSIYPPWTFGGGTKLEIK
notes: the assignment is an inference; also called GT512muMAB 61D; DSM ACC3069
B5: chimeric monoclonal antibody mAb206-SUBS (antibody, human IgG1, kappa, V domains shown)
VH: EVQLQQSGPELVKPGASMKISCKASGYSFTGYTMNWVKQSHGKNLEWIGLINPYNGGTIYNQKFKGKATLTVDKSSSTAYMELLSLTSEDSAVYYCARDYGFVLDYWGQGTTLTVSS
VL: QIVLTQSPSIMSVSPGEKVTITCSASSSVSYMHWFQQKPGTSPKLSIYSTSNLASGVPARFSGRGSGTSYSLTISRVAAEDAATYYCQQRSNYPPWTFGGGTKLEIKR
notes: Chimeric IgG1, kappa; also called amino acid substitution variant (C46S)
B6: chimeric monoclonal antibody mAb206-SUBG (antibody, human IgG1, kappa, V domains shown)
VH: EVQLQQSGPELVKPGASMKISCKASGYSFTGYTMNWVKQSHGKNLEWIGLINPYNGGTIYNQKFKGKATLTVDKSSSTAYMELLSLTSEDSAVYYCARDYGFVLDYWGQGTTLTVSS
VL: QIVLTQSPSIMSVSPGEKVTITCSASSSVSYMHWFQQKPGTSPKLGIYSTSNLASGVPARFSGRGSGTSYSLTISRVAAEDAATYYCQQRSNYPPWTFGGGTKLEIKR
notes: Chimeric IgG1, kappa; also called amino acid substitution variant (C46G)
B7: chimeric monoclonal antibody mAb206-LCC (antibody, human IgG1, kappa, V domains shown)
VH: EVQLQQSGPELVKPGASMKISCKASGYSFTGYTMNWVKQSHGKNLEWIGLINPYNGGTIYNQKFKGKATLTVDKSSSTAYMELLSLTSEDSAVYYCARDYGFVLDYWGQGTTLTVSS
VL: QIVLTQSPAIMSASPGEKVTITCSASSSVSYLHWFQQKPGTSPKLWVYSTSNLPSGVPARFGGSGSGTSYSLTISRMEAEDAATYYCQQRSIYPPWTFGGGTKLEIKR
notes: inferred; also called light-chain combination variant

Legend:
human CLDN4 (claudin 4) [1] = target: T1, human CLDN4 (claudin 4) (human, UniProt O14493 1-209); experiment: flow cytometry, HEK293 cells stably expressing the claudin
T1 sequence: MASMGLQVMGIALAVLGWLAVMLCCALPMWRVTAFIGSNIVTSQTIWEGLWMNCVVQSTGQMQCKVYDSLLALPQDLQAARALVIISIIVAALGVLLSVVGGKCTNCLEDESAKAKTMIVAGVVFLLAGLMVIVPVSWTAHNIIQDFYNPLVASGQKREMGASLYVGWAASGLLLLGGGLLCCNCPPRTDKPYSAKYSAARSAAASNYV
Procedure: (§1) To test the specificities and affinities of CLDN6-specific chimeric monoclonal antibodies binding to HEK293 cells stably transfected with CLDN3, 4, 6 or 9, respectively, and tumor cell lines that endogenously express CLDN6 was analyzed by flow cytometry. Therefore, cells were harvested with 0.05% Trypsin/EDTA, washed with FACS buffer (PBS containing 2% FCS and 0.1% sodium azide) and resuspended in FACS buffer at a concentration of 2×10⁶ cells/ml. 100 μl of the cell suspension were incubated with the appropriate antibody at indicated concentrations for 60 min at 4° C. A chimeric cross-reactive antibody (chimAB 5F2D2) was used to detect CLDN6 and CLDN9 expression. […] The cells were washed twice and resuspended in FACS buffer. The binding was analyzed by flow cytometry using a BD FACSArray.

human CLDN3 (claudin 3) [2] = target: T2, human CLDN3 (claudin 3) (human, UniProt O15551 1-220); experiment: as above
T2 sequence: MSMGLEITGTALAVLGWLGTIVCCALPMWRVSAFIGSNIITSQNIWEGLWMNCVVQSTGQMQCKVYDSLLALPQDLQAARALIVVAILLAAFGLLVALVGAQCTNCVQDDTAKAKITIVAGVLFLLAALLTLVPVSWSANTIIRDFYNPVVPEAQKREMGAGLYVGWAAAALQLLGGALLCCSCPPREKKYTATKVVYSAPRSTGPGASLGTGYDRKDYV
Procedure: as §1

[3] = target: T3, human CLDN6 (claudin 6), full length (human, UniProt P56747 1-220); experiment: flow cytometry, saturation binding on HEK293 cells stably expressing human CLDN6, median fluorescence
T3 construct: denatured cell lysate in the Western blot; also called NP 067018.2
T3 sequence: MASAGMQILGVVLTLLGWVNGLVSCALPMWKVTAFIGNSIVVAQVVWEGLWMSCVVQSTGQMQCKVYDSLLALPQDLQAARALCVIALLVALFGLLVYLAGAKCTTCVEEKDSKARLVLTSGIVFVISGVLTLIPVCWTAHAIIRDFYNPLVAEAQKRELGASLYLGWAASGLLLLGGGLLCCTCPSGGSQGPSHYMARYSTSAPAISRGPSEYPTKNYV
Procedure: (§2) The binding of CLDN6-specific chimeric monoclonal antibodies to cells expressing the target was analyzed by flow cytometry. Therefore, cells were harvested with 0.05% Trypsin/EDTA, washed with FACS buffer (PBS containing 2% FCS and 0.1% sodium azide) and resuspended in FACS buffer at a concentration of 2×10⁶ cells/ml. 100 pl of the cell suspension were incubated with the appropriate antibody at indicated concentrations for 30 min at 4° C. […] The cells were washed twice and resuspended in FACS buffer. The binding was analyzed by flow cytometry using a BD FACSArray.

human CLDN9 (claudin 9) [4] = target: T4, human CLDN9 (claudin 9) (human, UniProt O95484 1-217); experiment: flow cytometry, HEK293 cells stably expressing the claudin
T4 sequence: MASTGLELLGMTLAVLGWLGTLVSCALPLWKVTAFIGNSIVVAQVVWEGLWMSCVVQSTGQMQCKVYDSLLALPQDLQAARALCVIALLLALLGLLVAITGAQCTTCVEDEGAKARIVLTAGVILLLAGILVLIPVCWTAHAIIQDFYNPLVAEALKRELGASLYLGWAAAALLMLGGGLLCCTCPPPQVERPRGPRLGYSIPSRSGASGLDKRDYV
Procedure: as §1

human CLDN4 (claudin 4) [5] = target: T1, human CLDN4 (claudin 4); experiment: flow cytometry, HEK293T cells transiently co-transfected with the claudin and a fluorescence reporter
Procedure: (§3) To test the binding of monoclonal antibodies to CLDN6 and its homologous HEK293T cells were transiently transfected with the corresponding claudin-coding plasmid and the expression was analyzed by flow cytometry. In order to differentiate between transfected and non-transfected cells, HEK293T cells were co-transfected with a fluorescence marker as a reporter. 24 h post transfection cells were harvested with 0.05% trypsin/EDTA, washed with FACS buffer (PBS containing 2% FCS and 0.1% sodium azide) and resuspended in FACS buffer at a concentration of 2×10⁶ cells/ml. 100 μl of the cell suspension were incubated with the appropriate antibody at indicated concentrations for 30 min at 4° C. […] The cells were washed twice and resuspended in FACS buffer. The binding was analyzed by flow cytometry using a BD FACSArray. The expression of the fluorescence marker was plotted on the horizontal axis against the antibody binding on the vertical axis.

human CLDN3 (claudin 3) [6] = target: T2, human CLDN3 (claudin 3); experiment: as above
Procedure: as §3

human CLDN9 (claudin 9) [7] = target: T4, human CLDN9 (claudin 9); experiment: as above
Procedure: as §3

[8] = target: T3, human CLDN6 (claudin 6), full length; experiment: flow cytometry on OV90 ovarian cancer cells endogenously expressing CLDN6, median fluorescence
Procedure: as §2

[9] = target: T3, human CLDN6 (claudin 6), full length; experiment: flow cytometry on NEC8 testicular cancer cells endogenously expressing CLDN6, median fluorescence
Procedure: as §2

human CLDN9 (claudin 9) [10] = target: T4, human CLDN9 (claudin 9); experiment: flow cytometry, HEK293T cells transiently co-transfected with the claudin and a fluorescence reporter; remark: listed apart in the source
human CLDN4 (claudin 4) [11] = target: T1, human CLDN4 (claudin 4); experiment: as above; remark: listed apart in the source
human CLDN3 (claudin 3) [12] = target: T2, human CLDN3 (claudin 3); experiment: as above; remark: listed apart in the source
[13] = target: T3, human CLDN6 (claudin 6), full length; experiment: flow cytometry, NEC8 testicular cancer cells endogenously expressing human CLDN6
Procedure: as §2

| Binder | EC50 (read off the curve) [3] [µg/mL] | EC50 (read off the curve) [8] [µg/mL] | EC50 (read off the curve) [9] [µg/mL] | binding result (human CLDN9 (claudin 9) [10]) | binding result (human CLDN3 (claudin 3) [12]) | other results |
| --- | --- | --- | --- | --- | --- | --- |
| B1 | ~0.2 |  |  |  |  | binding result (human CLDN4 (claudin 4) [1]): no binding (tested: 25 µg/ml (legend)); binding result (human CLDN3 (claudin 3) [2]): no binding (tested: 25 µg/ml (legend)) |
| B2 |  |  |  |  |  | binding result (human CLDN9 (claudin 9) [4]): no binding (tested: 25 µg/ml (legend)); binding result (human CLDN4 (claudin 4) [1]): no binding (tested: 25 µg/ml (legend)); binding result (human CLDN3 (claudin 3) [2]): no binding (tested: 25 µg/ml (legend)) |
| B3 |  |  |  |  |  | binding result (human CLDN4 (claudin 4) [5]): no binding (tested: 25 µg/ml (legend)); binding result (human CLDN3 (claudin 3) [6]): no binding (tested: 25 µg/ml (legend)) |
| B4 |  |  |  |  |  | binding result (human CLDN9 (claudin 9) [7]): no binding (tested: 25 µg/ml (legend)); binding result (human CLDN4 (claudin 4) [5]): no binding (tested: 25 µg/ml (legend)); binding result (human CLDN3 (claudin 3) [6]): no binding (tested: 25 µg/ml (legend)) |
| B5 | ~0.2 | ~0.5 | ~0.5 | no binding | no binding | binding result (human CLDN4 (claudin 4) [11]): no binding |
| B6 | ~0.2 | ~0.5 | ~0.5 | no binding | no binding | binding result (human CLDN4 (claudin 4) [11]): no binding |
| B7 | ~0.2 | ~0.4 | ~0.2 | no binding | no binding | fold stronger binding affinity compared to chimAB 64A, mAb206-SUBG and mAb206-SUBS [13]: 3 fold |
